± gives the uncertainty stated by the source.
Experiment: amyloid nucleation score (Sup35N fusion, yeast selection) (log enrichment); library NNK2; higher = more nucleation; inactive = no reads after selection
Outline: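 For the nucleation score, DiMSum gave the log enrichment of output over input reads, centred on the mode score of non-aggregating sequences. Psi-negative yeast expressing Sup35N fused to peptides of 20 random codons were induced with 100 μM copper sulfate for 24 hours and grown 7 days at 30°C on medium lacking adenine and uracil. Input and output plasmid inserts were Illumina-sequenced, and sequences with under 100 input reads were excluded.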

Substance | amyloid nucleation score
DLITLMKSAIPQPNMRLNSL | 0.105 ± 0.57
WCGYCLTFLFPAQKQEAVLR | 0.218 ± 0.35
SLEGLLRPRKLVSCIDT | inactive
RSLSSPSRKLKLTNLWI | -0.226 ± 1.1
THFPLHV | -0.388 ± 0.37
SCSTYNDSSVYWFN | 2.04 ± 0.077
WDHLFASFFFLPLMLYGRYY | inactive
LGLRDELTVVVCWFRTYLIR | 4.634 ± 0.044
IDLWWSATHVTLLLSAPGIY | -1.09 ± 0.42
HHLLPWGWRPVYGSRLRCTL | 4.23 ± 0.049
FGVHVRCSEDDMAFALDLD | 0.155 ± 0.28
VLNIFVT | 7.248 ± 0.061
TPSECRCWEEFHGWTHLLRL | 0.461 ± 0.48
YFQKGFDVARIHLSFTLVLY | -0.913 ± 1
SKYLCRICDPMHLNLFCRWQ | 4.11 ± 0.059
IAPLWPYLNPYRVIFF | inactive
DYCMFFGVTRISSLH | 3.95 ± 0.073
SSYKKYSVVN | -1.59 ± 0.48
SGFEDVHAVVRFLIGVQYGG | -0.515 ± 1.1
ADYGVGSRFFVALFSNVFGV | 8.15 ± 0.071
CSFGPIVAD | -1.12 ± 0.63
MGFRGIHMRVCAFLRWYNNY | -0.709 ± 0.33
SEVGEGSPIDMTLARSGSVF | 0.913 ± 0.81
TSANLLLYRVLKSFLARQHQ | 0.062 ± 0.46
YHYDCYHLLTERKQGELVRT | -0.425 ± 0.35

Substance | amyloid nucleation score
YRLRMIFSMGMNNYVARWFH | -1.5 ± 1.1
RIYGILVSFYCIVYDGFSGG | 1.9 ± 0.082
PCPSISGLFASAYPITRLSL | -0.347 ± 0.24
EKVSFASFMS | -1.31 ± 0.78
RSLLRFQ | 0.874 ± 0.14
WNAHN | -0.081 ± 1.1
VYYAGSK | -0.562 ± 1.1
CAGRFRCFLMSCIDCKLGVL | -0.763 ± 1
LLLTNVKW | inactive
TTDCSNDLSAILVCLSHGAL | -0.19 ± 1
RLSRYFLRFWWAYDYDSN | 0.101 ± 0.54
IWHFYIACLGVSNESISGFG | 6.77 ± 0.068
CLQCYYRMSDNCFHSTA | 5.114 ± 0.04
QMQYFKATYSI | -0.613 ± 0.44
NAERSESLYNYKMAGPYGEG | -0.661 ± 1.1
CCWAVWDLRGFTRGWRLRRG | 0.509 ± 0.16
EIWMSLSLNAEISYVYYSQS | -0.658 ± 0.28
QVTSNRSTGRRYILNQMC | -0.337 ± 1.1
VFLSRVFNSF | -0.317 ± 0.79
DRVLTPNKGGKPRTLPHRDS | 1.19 ± 0.37
MQSINVNNVKTSTRPFFVNR | inactive
KLIVMGTNPGRVGNGWKRKS | 0.53 ± 0.3
EMVIGMFKCTLISSIVLKTC | 0.484 ± 0.23
IYFFSVF | inactive
SHCTLKNLV | -0.27 ± 1.1

Substance | amyloid nucleation score
CRRVIAESFYDTSLSCSAVG | 0.877 ± 0.47
FRLPNVLRDGSA | 1.41 ± 0.41
DKWAFVRITRQEPPASIRMD | -0.939 ± 0.76
ELLGG | -0.343 ± 1.1
IRVICRIWCLFLSL | 0.087 ± 0.55
SLEGLSCFTLANCLLR | 0.288 ± 0.24
MCRRFNFIIEVVVNASMTIR | -1.31 ± 1
VGPMEGGYPGVAQLLGEKRN | 2.3 ± 0.2
SVKIWCFIWEFPCFMLFRAL | -0.168 ± 1.1
VSLKFLQGGAKDLRWSCGGE | 1.78 ± 0.23
LDRGVVSLRLLFARAHNYSK | 2.88 ± 0.15
LCDTVTYWVPLC | 4.28 ± 0.094
LIFEEQENAGGMASIMSSMV | 0.463 ± 0.3
PWFKTFWSNMWAVTGW | -0.436 ± 1.1
VNIERGFLRLKRLD | -0.316 ± 1.1
CRVRYTGGY | 0.523 ± 0.35
VIPKHESISILFPAVYPPFE | 0.031 ± 0.23
MKPSSSLTYLE | -0.11 ± 0.5
DVVKSVPQTPL | 0.851 ± 0.28
REWEVCGDCLVGNNGWFRWV | 0.409 ± 0.47
VTLGVWRPAFFAFWTPRKQY | -0.35 ± 1.1
LYFRVNDEGVHFTCEGQKKE | 1.46 ± 0.17
CILLGSWLVNFYVWWSRMPI | -0.031 ± 1
SSKRVMKYRCDRWMADTCRK | 0.201 ± 0.8
YISSKYYWSTVKCFAFNTFH | -0.594 ± 0.42

Substance | amyloid nucleation score
YGAWCERLKRFSRLVWSDGR | 0.312 ± 0.54
YVQSVHFSSMILQINPGSFN | 4.94 ± 0.065
GLSGMEGKLS | -0.398 ± 0.63
PGMPARVHTCLSAMTYNFMC | -0.901 ± 0.44
VWRTGRGYGRMWFLHISSMY | -0.207 ± 0.34
PFLQLCREAIFCLSHDGMLK | -0.575 ± 0.28
VFRFNFLRGLKIQVLSRFGW | -0.067 ± 1.1
HVFADERMDVGGSITVTARG | 0.164 ± 1.1
TQINEVLL | -0.722 ± 0.28
VLCEQHGTGKHSISAEKGHR | 1.44 ± 0.41
YWFKSFSWFPVNIVIYNMEK | 5 ± 0.094
RNLYGHISVIFCGDNFDGSC | 7.15 ± 0.077
IYVVMFSKRLNSNFW | -1.62 ± 0.62
LVSMNFYCMILGIESLFVLS | 4.04 ± 0.074
KHRRYFFCVGSIRWASVYKT | inactive
SWGFI | -2.19 ± 0.62
SQSNMILYWADRF | 5.33 ± 0.057
TRRCIERNRNVLFFTFMCRL | 1.41 ± 0.27
IAFFGLCMSRVSLGVLEMRL | 2.21 ± 0.18
CHNNFNCPNVLVFLARELSI | 4.99 ± 0.079
LGDCVSNHSCLSVEHFDLNY | 4.92 ± 0.11
CTVRDSMAGIYLVDLVSCIR | -0.21 ± 0.6
SYVEHTMILDMRPTCHTLPH | 5.08 ± 0.11
WRLSLGYPVSALQMRMPGTL | 2.1 ± 0.22
MQTICSN | -1.13 ± 1

Substance | amyloid nucleation score
YRFRAIVNIYRCDVGFF | 6.36 ± 0.075
KCVSRISSGR | 1.03 ± 0.66
VKNWVISCGGILNDARRLFD | -0.78 ± 1.1
SMKHRHSRMVTFGVLV | 0.163 ± 0.28
IYGQCWVFQNLLRLRVSV | 0.119 ± 0.76
ANLFVCMDDM | -0.051 ± 0.23
ALCWVGSYSACLRIFKPSRM | 0.521 ± 0.41
VSYDVNIFWYPKKMS | inactive
ARHMHSASYNYTGTRSYSFY | 5.56 ± 0.091
NHVCRIVTMFGVPSRSN | inactive
KYENYLCITFMGCLLGMRSE | inactive
FSVTMDGYIRI | 0.06 ± 0.44
VSEMPLLYR | 0.769 ± 0.53
QNTMALKHNICPEHSSMWNS | 2.64 ± 0.066
LQKWYGDD | 1.58 ± 0.34
CKGLNMFLLFSHSHSCMLRG | -1.35 ± 0.39
LLGSYI | inactive
EKAGGPWLDHNRRQCQCEVA | 0.634 ± 0.45
RYINQ | -0.481 ± 1.1
YEIFGRTNPMMVDKNNAIWV | -0.691 ± 0.42
SVTRWEHAMAVPKKLLHSGR | 1.05 ± 0.23
RFKSNNRPCWHCHPLLGFRT | 1.06 ± 0.43
SLIFSDPHLVIALNFT | 8.898 ± 0.061
IMYWRGFWLFASLFTILWWF | inactive
VIRYINSEDFRTGREFTRGV | -1.68 ± 0.78

Substance | amyloid nucleation score
LAGFGMNFSFRFSVLTWGSV | 3.13 ± 0.09
MTRYDDRFVQNRSSWLDNFD | -0.909 ± 0.48
RQMMWRYEE | 0.3 ± 0.32
TQLIVMCHFVVHRRVKWRI | 0.786 ± 0.3
NVDLFWQWVYVYWRGARVEF | 0.075 ± 0.43
KSLDFR | 0.493 ± 0.46
DMSNQFYELVAMILMNST | -0.823 ± 0.32
WKALAS | 1.74 ± 0.11
HCGMAYFH | -0.111 ± 0.32
DGALNTFIDYGLSTAIKKIN | inactive
CNTRRLISMRI | -0.234 ± 0.65
NEIQANNCGPKILKLYQNMR | 0.579 ± 0.8
YFKFFWNAQMLGCA | inactive
SFSRSSAYVVHVLGYLEFRT | -0.004 ± 0.65
SPAQCIGVCNRLKLYCST | 0.262 ± 0.45
SVGGETITRWKCIWMTRRTE | 1.77 ± 0.16
VNTSFATFSSVSLEGLLSMV | -0.595 ± 0.3
ECSFVMKY | 3.41 ± 0.074
QAWYRLVCIASYLFYEGFNV | 0.193 ± 0.13
YKYSCFDRG | inactive
GEHRQGCYFGAIVFAILMFS | 0.007 ± 0.55
PSNLKFKYSCFLLNKCMGVR | 0.153 ± 0.43
IYGLYG | 0.515 ± 0.51
VFFGLWRIVRGETSHFYRDE | -0.835 ± 0.27
LIFYIVNHECINGRYALVGY | 0.448 ± 0.62

Substance | amyloid nucleation score
VYWTKWGFLLVSSVKVLSLE | -0.14 ± 1
SIANYGFVLNNHIRFFRSSG | 2.32 ± 0.15
RGSYMVPWHVERIIGNSRVS | -0.899 ± 0.23
HIMIFWYPVLTIKVQYDVGV | inactive
DFSLSGCPGMNRGDYDLHSK | inactive
FFCFFKIYFWMRAAGTSLNR | -0.861 ± 1
FTAFWGYSTSVFHMDMCLRK | 2.17 ± 0.071
NLMGFCYVSAEWVFGGRPGY | 1.97 ± 0.14
MRYEFVLFLRFRGSDTKGRD | -0.124 ± 0.33
IFIVYILCFFMREIFAPI | 3.77 ± 0.11
SGLGGGFFSIVCYTHISVRE | -0.069 ± 0.55
LRPLIIPGSKRHCNTVL | -0.005 ± 0.79
KIEGHGFYYLFNWTA | -0.833 ± 0.78
GSMSTSASVRPFWRYVFLH | inactive
IADQTMISRYSRS | 5.89 ± 0.084
YDSLYWCGSWYLGLSWISLR | -0.953 ± 0.62
CIFGMDKHTYQHVVHSTLLV | 0.181 ± 0.16
TEDDCGK | 0.975 ± 0.17
LKDETN | inactive
VAWITLMIPHIYFQSGILWD | -1 ± 0.25
GINISVLNMRQLFRLSAGSH | 4.36 ± 0.086

— the supplement of paper PMC12042874
